Experimental findings from article PMC7949091 are described below.

For this assay, the target named is HA-tagged extracellular domain of EspIgR (E. sinensis polymeric immunoglobulin receptor) (E. sinensis).

“Flag-tagged EsVg-DUF1943 domain (domain or fragment)” gave a percentage of hemocyte phagocytosis of FITC-labeled S. aureus coated with rEsVg-DUF1943, in vitro, flow cytometry (controls ∼11.39%; with siEspIgR ∼5.57%) of 22.1% and a percentage of hemocyte phagocytosis of FITC-labeled V. parahaemolyticus coated with rEsVg-DUF1943, in vitro, flow cytometry (with siEspIgR ∼6.10%) of 21.5%.
